Data published in patent publication US20120165204A1.

How the values were obtained:
[1] = molecular target: CRIB domain of PAK1 (residues 65-150, extended CRIB domain) with C-terminal 6x Histidine tag (UniProt Q13153); assay: ITC at 25 °C, experiment 1, stoichiometry of one-site model
[2] = molecular target: CRIB domain of PAK1 (residues 65-150, extended CRIB domain) with C-terminal 6x Histidine tag (UniProt Q13153); assay: ITC at 25 °C, experiment 2, stoichiometry of one-site model
[3] = molecular target: CRIB domain of PAK1 (residues 65-150, extended CRIB domain) with C-terminal 6x Histidine tag (UniProt Q13153); assay: ITC at 25 °C, PA-Rac1 mutant injected into PAK1 CRIB (10 µM), experiment 1; column head prints 'mM', paragraph 152 and the legend of FIG. 3 give µM
[4] = molecular target: CRIB domain of PAK1 (residues 65-150, extended CRIB domain) with C-terminal 6x Histidine tag (UniProt Q13153); assay: ITC
[5] = molecular target: CRIB domain of PAK1 (residues 65-150, extended CRIB domain) with C-terminal 6x Histidine tag (UniProt Q13153); assay: ITC at 25 °C, PA-Rac1 mutant injected into PAK1 CRIB (10 µM), experiment 2; column head prints 'mM', paragraph 152 gives µM
[6] = molecular target: CRIB domain of PAK1 (residues 65-150, extended CRIB domain) with C-terminal 6x Histidine tag (UniProt Q13153); assay: ITC at 25 °C, experiment 1; parameters: unit not given here
[7] = molecular target: CRIB domain of PAK1 (residues 65-150, extended CRIB domain) with C-terminal 6x Histidine tag (UniProt Q13153); assay: ITC at 25 °C, experiment 2; parameters: unit not given here
[8] = molecular target: CRIB domain of PAK1 (residues 65-150, extended CRIB domain) with C-terminal 6x Histidine tag (UniProt Q13153); assay: ITC at 25 °C, PA-Rac1 mutant injected into PAK1 CRIB (10 µM), experiment 1; column head prints 'mM', paragraph 152 and the legend of FIG. 3 give µM / nM
[9] = molecular target: CRIB domain of PAK1 (residues 65-150, extended CRIB domain) with C-terminal 6x Histidine tag (UniProt Q13153); assay: ITC at 25 °C, PA-Rac1 mutant injected into PAK1 CRIB (10 µM), experiment 2; column head prints 'mM', paragraph 152 gives 220-280 nM

Substance | N [1] | N [2] | Kd [3] | fold weaker affinity than the lit state mimetic I539E [4] | Kd [5] | ΔH [6] | ΔS [6] | ΔH [7] | ΔS [7] | Kd [8] | Kd [9]
PA-Rac1 C450A (dark state mutant) with N-terminal six Histidine tag (from UniProt P63000 4-192) | 1 | 0.64 | 2.3 µM | 10 fold | 3.1 µM | -7000 | 2.6 | -5600 | 6.6 |  | 
PA-Rac1 I539E (lit state mutant) with N-terminal six Histidine tag (from UniProt P63000 4-192) | 0.95 | 0.95 |  |  |  |  | -30 | -18000 | -31 | 0.22 µM | 0.28 µM
